Assay results taken from article PMC4601640, “Stability of the Human Hsp90-p50^Cdc37 Chaperone Complex against Nucleotides and Hsp90 Inhibitors, and the Influence of Phosphorylation by Casein Kinase 2” (Molecules, 2015).

T1: human full-length p50^Cdc37 (residues 1-378) (human), Q16543
T1 chain: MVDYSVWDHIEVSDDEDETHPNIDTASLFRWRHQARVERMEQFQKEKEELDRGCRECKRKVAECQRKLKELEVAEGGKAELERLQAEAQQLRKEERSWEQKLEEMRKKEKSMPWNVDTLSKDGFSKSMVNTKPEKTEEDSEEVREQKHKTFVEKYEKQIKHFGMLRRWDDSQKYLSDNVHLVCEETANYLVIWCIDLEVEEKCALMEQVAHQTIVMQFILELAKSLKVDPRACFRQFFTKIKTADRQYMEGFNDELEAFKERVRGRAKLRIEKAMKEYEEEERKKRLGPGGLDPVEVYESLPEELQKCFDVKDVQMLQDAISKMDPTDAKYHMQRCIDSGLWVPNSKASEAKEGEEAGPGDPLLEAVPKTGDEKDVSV

B1: human full-length p50^Cdc37 (residues 1-378) (natural protein)
chain: T1 chain
B2: human full-length p50^Cdc37 (residues 1-378), Q16543 1-378 (natural protein)
chain: T1 chain

What was measured:
[1] = target: the different Hsp90 proteins; assay: ITC; p50^Cdc37 (200 µM) titrated into Hsp90 (20 µM); 50 mM HEPES pH 7.5, 10 mM MgCl2, 30 °C
[2] = target: T1, human full-length p50^Cdc37 (residues …); assay: SEC; analytical Superdex200 10/300 GL, room temperature, 0.3 mL/min; 85 µM protein in 50 mM HEPES pH 7.5, 50 mM KCl, 5 mM MgCl2, 1 mM DTT; fractions on SDS-PAGE; settings: remark: other sources report otherwise

| Binder | Kd [1] | stoichiometry N [2] |
| --- | --- | --- |
| B1 | 1100 to 1900 nM | – |
| B2 | – | 2 |
